This is an account of results in US20070190603A1 (MIT, published 2007).

The data set concerns the molecule itself. As to the kind of experiment: self-assembly into a macroscopic membrane in DMEM; phase-contrast microscopy and Congo Red staining. The protocol:
The peptides were initially dissolved in water (5 mg/ml) or in 23% acetonitrile (10 mg/ml). A volume of 5-10 microliters of the dissolved peptides were applied to the DMEM medium, PBS or water. The formation of the membrane was first observed under a phase-contrast microscope and then, by the naked eye after staining with Congo Red.

For the protein Ac-AEAKAEAEAKAK-NH2 [EAK12 peptide, Ac-HN-AEAKAEAEAKAK-CONH2], the binding result is given as “binds”.
Consider Ac-AEAEAKAKAEAEAKAK-NH2 (Self-assembling amphiphilic peptide) [EAK16 peptide, Ac-HN-AEAEAKAKAEAEAKAK-CONH2], for which the binding result is “binds”.
